Experimental data as given in US20250076311A1 (Chugai, published 2025).

T1: human FcγRIIaH extracellular domain with C-terminal His-tag (human, UniProt P12318 34-217)
T1 construct: also called human FcgRIIaH; FcγRIIa (type H); not shown: His-tag added to C-terminus
T1 sequence: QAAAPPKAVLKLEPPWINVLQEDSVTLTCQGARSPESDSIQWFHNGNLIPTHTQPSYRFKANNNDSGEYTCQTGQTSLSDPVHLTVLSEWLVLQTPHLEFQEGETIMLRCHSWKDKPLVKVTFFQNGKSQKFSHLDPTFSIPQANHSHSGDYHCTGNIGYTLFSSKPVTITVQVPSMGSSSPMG

T2: cynomolgus monkey FcγRIIa1 extracellular domain with C-terminal His-tag (cynomolgus monkey)
T2 construct: also called cyno FcgRIIa1; cynoFcγRIIa1; not shown: His-tag added to C-terminus
T2 chain: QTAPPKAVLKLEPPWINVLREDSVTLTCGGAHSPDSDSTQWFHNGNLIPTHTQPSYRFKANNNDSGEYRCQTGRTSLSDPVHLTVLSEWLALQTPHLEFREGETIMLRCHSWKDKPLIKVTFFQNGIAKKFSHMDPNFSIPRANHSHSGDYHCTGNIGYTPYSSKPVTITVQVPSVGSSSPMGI

T3: cynomolgus monkey FcγRIIb extracellular domain with C-terminal His-tag (cynomolgus monkey)
T3 construct: also called cyno FcgRIIb; cynoFcγRIIb
T3 chain: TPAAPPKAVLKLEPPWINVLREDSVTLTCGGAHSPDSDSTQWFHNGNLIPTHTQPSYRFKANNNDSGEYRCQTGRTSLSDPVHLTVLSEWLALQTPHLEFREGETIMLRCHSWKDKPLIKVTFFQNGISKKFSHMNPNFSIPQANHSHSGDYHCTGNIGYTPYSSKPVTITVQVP

T4: cynomolgus monkey FcγRIIa2 extracellular domain with C-terminal His-tag (cynomolgus monkey)
T4 construct: also called cyno FcgRIIa2; cynoFcγRIIa2
T4 chain: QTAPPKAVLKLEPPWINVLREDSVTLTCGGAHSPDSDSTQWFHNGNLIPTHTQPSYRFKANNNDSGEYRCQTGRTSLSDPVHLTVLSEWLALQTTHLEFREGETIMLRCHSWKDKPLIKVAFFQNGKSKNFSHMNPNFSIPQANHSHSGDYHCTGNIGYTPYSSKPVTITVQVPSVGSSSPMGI

T5: human FcγRIIaR extracellular domain with C-terminal His-tag (human, UniProt P12318 34-217)
T5 construct: also called human FcgRIIaR; FcγRIIa (type R)
T5 chain: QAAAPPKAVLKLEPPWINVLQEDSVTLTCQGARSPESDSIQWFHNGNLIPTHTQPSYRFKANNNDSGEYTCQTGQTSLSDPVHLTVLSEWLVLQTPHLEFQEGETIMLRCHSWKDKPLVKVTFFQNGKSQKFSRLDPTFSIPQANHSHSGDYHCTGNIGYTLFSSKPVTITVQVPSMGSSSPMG

T6: cynomolgus monkey FcγRIIa3 extracellular domain with C-terminal His-tag (cynomolgus monkey)
T6 construct: also called cyno FcgRIIa3; cynoFcγRIIa3
T6 chain: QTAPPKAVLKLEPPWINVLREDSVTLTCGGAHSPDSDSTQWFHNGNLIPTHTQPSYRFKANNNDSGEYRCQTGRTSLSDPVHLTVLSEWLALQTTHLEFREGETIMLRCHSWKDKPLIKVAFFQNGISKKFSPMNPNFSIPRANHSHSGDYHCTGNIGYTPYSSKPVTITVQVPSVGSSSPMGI


Legend:
[1] = target: T1, human FcγRIIaH extracellular domain …; assay: SPR Biacore, antibody captured, FcgR analyte
[2] = target: T7, cynomolgus monkey FcγRIIIaS extracellular domain with C-terminal His-tag (cynomolgus monkey, UniProt A3RFZ7 21-206 (rhesus entry)); assay: SPR Biacore, antibody captured, FcgR analyte
T7 construct: also called cyno FcgRIIIaS; cynoFcγRIIIaS; not shown: His-tag added to C-terminus

[3] = target: T2, cynomolgus monkey FcγRIIa1 …; assay: SPR Biacore, antibody captured, FcgR analyte
[4] = target: T3, cynomolgus monkey FcγRIIb extracellular …; assay: SPR (Biacore), KD of SG1 / KD of variant
Procedure: (§1) The kinetic analysis of interactions between these antibodies and FcγR was carried out using BIACORE® T200 or BIACORE® 4000 (GE Healthcare). HBS-EP+ (GE Healthcare) was used as the running buffer, and the measurement temperature was set to 25° C. […] After the measurement, the antibody captured on the chip was washed off by allowing reaction with 10 mM glycine-HCl, pH1.5 and 25 mM NaOH so that the chip was regenerated and used repeatedly. The sensorgrams obtained as measurement results were analyzed by the 1:1 Langmuir binding model using the BIACORE® Evaluation Software to calculate the binding rate constant ka (L/mol/s) and dissociation rate constant kd (1/s), and the dissociation constant KD (mol/L) was calculated from these values. […] Regarding such interactions, KD values were calculated using the following 1:1 binding model described in BIACORE® T100 Software Handbook BR1006-48 Edition AE.

[5] = target: T4, cynomolgus monkey FcγRIIa2 …; assay: SPR (Biacore), KD of SG1 / KD of variant
Procedure: as §1

[6] = target: T5, human FcγRIIaR extracellular domain …; assay: SPR (Biacore), antibody captured, FcgR analyte
Procedure: as §1

[7] = target: T6, cynomolgus monkey FcγRIIa3 …; assay: SPR (Biacore), KD of SG1 / KD of variant
Procedure: as §1

T7 sequence (A3RFZ7 21-206): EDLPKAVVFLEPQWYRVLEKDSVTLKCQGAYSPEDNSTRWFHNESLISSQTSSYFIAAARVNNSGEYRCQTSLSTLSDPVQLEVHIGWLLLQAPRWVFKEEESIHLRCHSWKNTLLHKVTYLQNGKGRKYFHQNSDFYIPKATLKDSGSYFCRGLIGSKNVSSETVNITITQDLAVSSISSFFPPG

| KD fold (SG1 = 1) [4] | KD fold (SG1 = 1) [5] | Kd [6] | KD fold (SG1 = 1) [7] | Binder | other results |
| --- | --- | --- | --- | --- | --- |
| 2.5 fold | 1.8 fold | – | 3.5 fold | M103205H795-MY465/M103202L889-SK1 (antibody, Substitutions in EU numbering on SG1) heavy: QVTLKESGPVLVKPTETLTLTCTVSGIDLSHDDISWVRQAPGKGLEWVGIISYAGSTYYASWAKGRLTISKDTSKNQVVLTMTNMDPVDTATYYCARGVPAYSHGGDLWGQGTLVTVSSASTKGPSVFPLAPSSKSTSGGTAALGCLVKDYFPEPVTVSWNSGALTSGVHTFPAVLQSSGLYSLSSVVTVPSSSLGTQTYICNVNHKPSNTKVDKKVEPKSCDKTHTCPPCPKPELLTGPSVFLFPPKPKDTLMISRTPEVTCVVVDVSDEDPEVKFNWYVDGVEVHNAKTKPREEQYNSTYRVVSVLTVLHQDWLNGKEYKCKVSNKALPKPIEKTISKAKGQPREPQVYTLPPSREEMTKNQVSLTCLVKGFYPSDIAVEWESNGQPENNYKTTPPVLDSDGSFFLYSKLTVDKSRWQQGNVFSCSVMHEALHNHYTQKSLSLSP light: DIVMTQSPATLSLSPGERATLSCTSSQSVYHANWLSWFQQKPGQPPKLLIYWASTLAYGVPSRFSGSGSGTDFTLTISSLQPEDAATYYCAGGYGGGRYAFGQGTKVEIKRTVAAPSVFIFPPSDEQLKSGTASVVCLLNNFYPREAKVQWKVDNALQSGNSQESVTEQDSKDSTYSLSSTLTLSKADYEKHKVYACEVTHQGLSSPVTKSFNRGEC | – |
| 3.5 fold | – | – | – | M103205H795-MY467/M103202L889-SK1 (antibody, human IgG1, kappa, Substitutions in EU numbering on SG1) heavy: QVTLKESGPVLVKPTETLTLTCTVSGIDLSHDDISWVRQAPGKGLEWVGIISYAGSTYYASWAKGRLTISKDTSKNQVVLTMTNMDPVDTATYYCARGVPAYSHGGDLWGQGTLVTVSSASTKGPSVFPLAPSSKSTSGGTAALGCLVKDYFPEPVTVSWNSGALTSGVHTFPAVLQSSGLYSLSSVVTVPSSSLGTQTYICNVNHKPSNTKVDKKVEPKSCDKTHTCPPCPMPELLTGPSVFLFPPKPKDTLMISRTPEVTCVVVDVSDEDPEVKFNWYVDGVEVHNAKTKPREEQYNSTYRVVSVLTVLHQDWLNGKEYKCKVSNKALPKPIEKTISKAKGQPREPQVYTLPPSREEMTKNQVSLTCLVKGFYPSDIAVEWESNGQPENNYKTTPPVLDSDGSFFLYSKLTVDKSRWQQGNVFSCSVMHEALHNHYTQKSLSLSP light: DIVMTQSPATLSLSPGERATLSCTSSQSVYHANWLSWFQQKPGQPPKLLIYWASTLAYGVPSRFSGSGSGTDFTLTISSLQPEDAATYYCAGGYGGGRYAFGQGTKVEIKRTVAAPSVFIFPPSDEQLKSGTASVVCLLNNFYPREAKVQWKVDNALQSGNSQESVTEQDSKDSTYSLSSTLTLSKADYEKHKVYACEVTHQGLSSPVTKSFNRGEC | – |
| – | – | 640 nM | 2.5 fold | M103205H795-MY451/M103202L889-SK1 (antibody, human IgG1, kappa, Substitutions in EU numbering on SG1) heavy: QVTLKESGPVLVKPTETLTLTCTVSGIDLSHDDISWVRQAPGKGLEWVGIISYAGSTYYASWAKGRLTISKDTSKNQVVLTMTNMDPVDTATYYCARGVPAYSHGGDLWGQGTLVTVSSASTKGPSVFPLAPSSKSTSGGTAALGCLVKDYFPEPVTVSWNSGALTSGVHTFPAVLQSSGLYSLSSVVTVPSSSLGTQTYICNVNHKPSNTKVDKKVEPKSCDKTHTCPPCPANELLTGPSVFLFPPKPKDTLMISRTPEVTCVVVDVSDEDPEVKFNWYVDGVEVHNAKTKPREEQYNSTYRVVSVLTVLHQDWLNGKEYKCKVSNKALPKPIEKTISKAKGQPREPQVYTLPPSREEMTKNQVSLTCLVKGFYPSDIAVEWESNGQPENNYKTTPPVLDSDGSFFLYSKLTVDKSRWQQGNVFSCSVMHEALHNHYTQKSLSLSP light: DIVMTQSPATLSLSPGERATLSCTSSQSVYHANWLSWFQQKPGQPPKLLIYWASTLAYGVPSRFSGSGSGTDFTLTISSLQPEDAATYYCAGGYGGGRYAFGQGTKVEIKRTVAAPSVFIFPPSDEQLKSGTASVVCLLNNFYPREAKVQWKVDNALQSGNSQESVTEQDSKDSTYSLSSTLTLSKADYEKHKVYACEVTHQGLSSPVTKSFNRGEC | – |

The next lines start with the binder.

| Binder | KD fold (SG1 = 1) [4] | KD fold (SG1 = 1) [5] | Kd [6] | KD fold (SG1 = 1) [7] | other results |
| --- | --- | --- | --- | --- | --- |
| M103205H795-MY198/M103202L889-SK1 (antibody, human IgG1, kappa, name in EU numbering, substitutions in EU numbering, introduced into M103205H795-SG1) heavy: QVTLKESGPVLVKPTETLTLTCTVSGIDLSHDDISWVRQAPGKGLEWVGIISYAGSTYYASWAKGRLTISKDTSKNQVVLTMTNMDPVDTATYYCARGVPAYSHGGDLWGQGTLVTVSSASTKGPSVFPLAPSSKSTSGGTAALGCLVKDYFPEPVTVSWNSGALTSGVHTFPAVLQSSGLYSLSSVVTVPSSSLGTQTYICNVNHKPSNTKVDKKVEPKSCDKTHTCPPCPAPELLNGPVVFLFPPKPKDTLMISRTPEVTCVVVDVSDEDPEVKFNWYVDGVEVHNAKTKPREEQYNSTYRVVSVLTVLHQDWLNGKEYKCKVSNKALPKPIEKTISKAKGQPREPQVYTLPPSREEMTKNQVSLTCLVKGFYPSDIAVEWESNGQPENNYKTTPMVLDSDGSFFLYSKLTVDKSRWQQGNVFSCSVMHEALHNHYTQKSLSLSP light: DIVMTQSPATLSLSPGERATLSCTSSQSVYHANWLSWFQQKPGQPPKLLIYWASTLAYGVPSRFSGSGSGTDFTLTISSLQPEDAATYYCAGGYGGGRYAFGQGTKVEIKRTVAAPSVFIFPPSDEQLKSGTASVVCLLNNFYPREAKVQWKVDNALQSGNSQESVTEQDSKDSTYSLSSTLTLSKADYEKHKVYACEVTHQGLSSPVTKSFNRGEC | – | – | – | – | KD fold (SG1 = 1) [1]: 1.2 fold; KD fold (SG1 = 1) [2]: 0.15 fold; KD fold (SG1 = 1) [3]: 7.5 fold |
| M103205H795-MY442/M103202L889-SK1 (antibody, human IgG1, kappa, Substitutions in EU numbering on SG1) heavy: QVTLKESGPVLVKPTETLTLTCTVSGIDLSHDDISWVRQAPGKGLEWVGIISYAGSTYYASWAKGRLTISKDTSKNQVVLTMTNMDPVDTATYYCARGVPAYSHGGDLWGQGTLVTVSSASTKGPSVFPLAPSSKSTSGGTAALGCLVKDYFPEPVTVSWNSGALTSGVHTFPAVLQSSGLYSLSSVVTVPSSSLGTQTYICNVNHKPSNTKVDKKVEPKSCDKTHTCPPCPADELLTGPSVFLFPPKPKDTLMISRTPEVTCVVVDVSDEDPEVKFNWYVDGVEVHNAKTKPREEQYNSTYRVVSVLTVLHQDWLNGKEYKCKVSNKALPKPIEKTISKAKGQPREPQVYTLPPSREEMTKNQVSLTCLVKGFYPSDIAVEWESNGQPENNYKTTPPVLDSDGSFFLYSKLTVDKSRWQQGNVFSCSVMHEALHNHYTQKSLSLSP light: DIVMTQSPATLSLSPGERATLSCTSSQSVYHANWLSWFQQKPGQPPKLLIYWASTLAYGVPSRFSGSGSGTDFTLTISSLQPEDAATYYCAGGYGGGRYAFGQGTKVEIKRTVAAPSVFIFPPSDEQLKSGTASVVCLLNNFYPREAKVQWKVDNALQSGNSQESVTEQDSKDSTYSLSSTLTLSKADYEKHKVYACEVTHQGLSSPVTKSFNRGEC | 1 fold | – | – | – | – |
| M103205H795-MY445/M103202L889-SK1 (antibody, human IgG1, kappa, Substitutions in EU numbering on SG1) heavy: QVTLKESGPVLVKPTETLTLTCTVSGIDLSHDDISWVRQAPGKGLEWVGIISYAGSTYYASWAKGRLTISKDTSKNQVVLTMTNMDPVDTATYYCARGVPAYSHGGDLWGQGTLVTVSSASTKGPSVFPLAPSSKSTSGGTAALGCLVKDYFPEPVTVSWNSGALTSGVHTFPAVLQSSGLYSLSSVVTVPSSSLGTQTYICNVNHKPSNTKVDKKVEPKSCDKTHTCPPCPAGELLTGPSVFLFPPKPKDTLMISRTPEVTCVVVDVSDEDPEVKFNWYVDGVEVHNAKTKPREEQYNSTYRVVSVLTVLHQDWLNGKEYKCKVSNKALPKPIEKTISKAKGQPREPQVYTLPPSREEMTKNQVSLTCLVKGFYPSDIAVEWESNGQPENNYKTTPPVLDSDGSFFLYSKLTVDKSRWQQGNVFSCSVMHEALHNHYTQKSLSLSP light: DIVMTQSPATLSLSPGERATLSCTSSQSVYHANWLSWFQQKPGQPPKLLIYWASTLAYGVPSRFSGSGSGTDFTLTISSLQPEDAATYYCAGGYGGGRYAFGQGTKVEIKRTVAAPSVFIFPPSDEQLKSGTASVVCLLNNFYPREAKVQWKVDNALQSGNSQESVTEQDSKDSTYSLSSTLTLSKADYEKHKVYACEVTHQGLSSPVTKSFNRGEC | – | 0.5 fold | 1100 nM | – | – |
